In article PMC2845643 (2011) one finds Kd data, which are given here for 1 molecule.

Holding throughout (test): IAANS fluorescence titration
The target in test [1] is cardiac troponin C (V44Q TnC IAANS T53C) (Homo sapiens, UniProt P63316).
In test [2] the target is cardiac troponin C (TnC IAANS T53C) (Homo sapiens, UniProt P63316).
Test [3] deals with cardiac troponin C (M45Q TnC IAANS T53C) (Homo sapiens, UniProt P63316).
Test [4] deals with cardiac troponin C (F20Q TnC IAANS T53C) (Homo sapiens, UniProt P63316).
Test [5] addresses cardiac troponin C (L48Q TnC IAANS T53C) (Homo sapiens, UniProt P63316).

B1: cardiac troponin I peptide TnI128-180 128-180 (protein)
chain: LTQKIFDLRGKFKRPTLRRVRISADAMMQALLGARAKESLDLRAHLKQVKKED
As for B1, the Kd in test [1] is 262 nM; in test [2], 200 nM; in test [3], 289 nM; in test [4] it was 318 nM; in test [5], 268 nM.

As a reminder, the Kd is the concentration at which binding is half-saturated. Low readings indicate higher affinity, high ones lower affinity.
